# Measured values as given in article PMC7082078 (Cell reports, 2020).
# Experiments:
# Assay in all cases: AUC
# [1] = biological target: Xenopus pcdh8.1 full ectodomain (EC1–EC6) (Xenopus)
# [2] = biological target: Xenopus pcdh8.2 (PAPC) full ectodomain (EC1–EC6) (Xenopus)
# [3] = biological target: human pcdh7 EC1–EC4 fragment (human)
# [4] = biological target: human pcdh8 EC5–EC6 fragment (human)
# [5] = biological target: human pcdh9 EC1–EC4 fragment (human)
# [6] = biological target: human pcdh10 EC1–EC3 fragment (human)
# [7] = biological target: human pcdh10 EC1–EC4 fragment (human)
# [8] = biological target: human pcdh10 EC5–EC6 fragment (human)
# [9] = biological target: human pcdh10 full ectodomain (EC1–EC6) (human)
# [10] = biological target: human pcdh11Y full ectodomain (EC1–EC7) (human)
# [11] = biological target: human pcdh12 full ectodomain fragment (EC1–EC6) (human)
# [12] = biological target: human pcdh17 full ectodomain (EC1–EC6) (human)
# [13] = biological target: human pcdh18 full ectodomain (EC1–EC6) (human)
# [14] = biological target: mouse pcdh7 EC1–EC4 fragment (mouse)
# [15] = biological target: mouse pcdh7 full ectodomain (EC1–EC7) (mouse)
# AUC = biological target: the molecule itself
# Chain of human pcdh10 EC1–EC3 fragment (domain or fragment) (Q9P2E7 19-1040): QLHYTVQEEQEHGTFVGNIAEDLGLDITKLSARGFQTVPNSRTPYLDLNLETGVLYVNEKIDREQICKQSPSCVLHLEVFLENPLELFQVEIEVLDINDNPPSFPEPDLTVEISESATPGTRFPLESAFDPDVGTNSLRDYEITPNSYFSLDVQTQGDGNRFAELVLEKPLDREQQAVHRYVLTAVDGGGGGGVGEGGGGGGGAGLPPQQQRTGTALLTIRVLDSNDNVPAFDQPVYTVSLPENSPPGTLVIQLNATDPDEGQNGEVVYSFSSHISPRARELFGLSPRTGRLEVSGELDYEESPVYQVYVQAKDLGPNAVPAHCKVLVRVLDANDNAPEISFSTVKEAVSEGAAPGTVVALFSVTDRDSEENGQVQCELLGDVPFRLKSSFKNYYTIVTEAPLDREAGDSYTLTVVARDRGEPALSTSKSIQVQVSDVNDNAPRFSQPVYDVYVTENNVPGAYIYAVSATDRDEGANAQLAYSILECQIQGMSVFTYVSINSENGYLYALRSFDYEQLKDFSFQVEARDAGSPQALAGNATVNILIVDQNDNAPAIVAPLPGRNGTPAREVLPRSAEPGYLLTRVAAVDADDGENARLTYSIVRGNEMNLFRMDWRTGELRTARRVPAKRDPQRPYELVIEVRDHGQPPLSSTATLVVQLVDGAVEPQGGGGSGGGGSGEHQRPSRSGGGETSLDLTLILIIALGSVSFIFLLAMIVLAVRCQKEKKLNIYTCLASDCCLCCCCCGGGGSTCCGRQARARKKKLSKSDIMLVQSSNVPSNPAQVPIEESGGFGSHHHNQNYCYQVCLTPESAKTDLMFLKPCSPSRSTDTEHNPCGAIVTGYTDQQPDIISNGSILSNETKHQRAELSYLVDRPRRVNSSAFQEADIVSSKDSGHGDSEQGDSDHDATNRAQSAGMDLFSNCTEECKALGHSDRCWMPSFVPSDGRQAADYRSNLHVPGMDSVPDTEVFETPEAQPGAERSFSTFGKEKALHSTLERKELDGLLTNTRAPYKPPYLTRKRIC
molecule,measurement,setting,value
Xenopus pcdh8.1 full ectodomain (EC1–EC6) (domain or fragment),Kd,[1],3.5 µM
same,stoichiometry N,[1],2
Xenopus pcdh8.2 (PAPC) full ectodomain (EC1–EC6) (domain or fragment),stoichiometry N,[2],2
human pcdh7 EC1–EC4 fragment (domain or fragment),Kd,[3],2.7 µM
same,stoichiometry N,[3],2
human pcdh8 EC5–EC6 fragment (domain or fragment),Kd,[4],> 1000 µM
human pcdh9 EC1–EC4 fragment (domain or fragment),Kd,[5],2 µM
same,stoichiometry N,[5],2
human pcdh10 EC1–EC3 fragment (domain or fragment),Kd,[6],280 µM
same,stoichiometry N,[6],2
human pcdh10 EC1–EC4 fragment (domain or fragment),Kd,[7],0.68 µM
same,stoichiometry N,[7],2
human pcdh10 EC5–EC6 fragment (domain or fragment),Kd,[8],> 1000 µM
human pcdh10 full ectodomain (EC1–EC6) (domain or fragment),Kd,[9],3.6 µM
same,stoichiometry N,[9],2
human pcdh11Y full ectodomain (EC1–EC7) (domain or fragment),Kd,[10],7.8 µM
same,stoichiometry N,[10],2
human pcdh12 full ectodomain fragment (EC1–EC6) (domain or fragment),stoichiometry N,[11],2
human pcdh17 full ectodomain (EC1–EC6) (domain or fragment),Kd,[12],4.8 µM
same,stoichiometry N,[12],2
human pcdh18 full ectodomain (EC1–EC6) (domain or fragment),Kd,[13],2.7 µM
same,stoichiometry N,[13],2
mouse pcdh7 EC1–EC4 fragment (domain or fragment),Kd,[14],4.1 µM
same,stoichiometry N,[14],2
mouse pcdh7 full ectodomain (EC1–EC7) (domain or fragment),Kd,[15],8.2 µM
same,stoichiometry N,[15],2
human pcdh19 full ectodomain (EC1–EC6) (domain or fragment) LINLKYSVEEEQRAGTVIANVAKDAREAGFALDPRQASAFRVVSNSAPHLVDINPSSGLLVTKQKIDRDLLCRQSPKCIISLEVMSSSMEICVIKVEIKDLNDNAPSFPAAQIELEISEAASPGTRIPLDSAYDPDSGSFGVQTYELTPNELFGLEIKTRGDGSRFAELVVEKSLDRETQSHYSFRITALDGGDPPRLGTVGLSIKVTDSNDNNPVFSESTYAVSVPENSPPNTPVIRLNASDPDEGTNGQVVYSFYGYVNDRTRELFQIDPHSGLVTVTGALDYEEGHVYELDVQAKDLGPNSIPAHCKVTVSVLDTNDNPPVINLLSVNSELVEVSESAPPGYVIALVRVSDRDSGLNGRVQCRLLGNVPFRLQEYESFSTILVDGRLDREQHDQYNLTIQARDGGVPMLQSAKSFTVLITDENDNHPHFSKPYYQVIVQENNTPGAYLLSVSARDPDLGLNGSVSYQIVPSQVRDMPVFTYVSINPNSGDIYALRSFNHEQTKAFEFKVLAKDGGLPSLQSNATVRVIILDVNDNTPVITAPPLINGTAEVYIPRNSGIGYLVTVVKAEDYDEGENGRVTYDMTEGDRGFFEIDQVNGEVRTTRTFGESSKSSYELIVVAHDHGKTSLSASALVLIYLSPALDAQESMGSVNLS,Kd,AUC,0.48 µM
same,stoichiometry N,AUC,2
human pcdh1 EC1–EC4 fragment (domain or fragment) TRVVYKVPEEQPPNTLIGSLAADYGFPDVGHLYKLEVGAPYLRVDGKTGDIFTTETSIDREGLRECQNQLPGDPCILEFEVSITDLVQNGSPRLLEGQIEVQDINDNTPNFASPVITLAIPENTNIGSLFPIPLASDRDAGPNGVASYELQAGPEAQELFGLQVAEDQEEKQPQLIVMGNLDRERWDSYDLTIKVQDGGSPPRASSALLRVTVLDTNDNAPKFERPSYEAELSENSPIGHSVIQVKANDSDQGANAEIEYTFHQAPEVVRRLLRLDRNTGLITVQGPVDREDLSTLRFSVLAKDRGTNPKSARAQVVVTVKDMNDNAPTIEIRGIGLVTHQDGMANISEDVAEETAVALVQVSDRDEGENAAVTCVVAGDVPFQLRQASETGSDSKKKYFLQTTTPLDYEKVKDYTIEIVAVDSGNPPLSSTNSLKVQVVD,Kd,AUC,0.53 µM
same,stoichiometry N,AUC,2
human pcdh1 full ectodomain (EC1–EC7) (domain or fragment) TRVVYKVPEEQPPNTLIGSLAADYGFPDVGHLYKLEVGAPYLRVDGKTGDIFTTETSIDREGLRECQNQLPGDPCILEFEVSITDLVQNGSPRLLEGQIEVQDINDNTPNFASPVITLAIPENTNIGSLFPIPLASDRDAGPNGVASYELQAGPEAQELFGLQVAEDQEEKQPQLIVMGNLDRERWDSYDLTIKVQDGGSPPRASSALLRVTVLDTNDNAPKFERPSYEAELSENSPIGHSVIQVKANDSDQGANAEIEYTFHQAPEVVRRLLRLDRNTGLITVQGPVDREDLSTLRFSVLAKDRGTNPKSARAQVVVTVKDMNDNAPTIEIRGIGLVTHQDGMANISEDVAEETAVALVQVSDRDEGENAAVTCVVAGDVPFQLRQASETGSDSKKKYFLQTTTPLDYEKVKDYTIEIVAVDSGNPPLSSTNSLKVQVVDVNDNAPVFTQSVTEVAFPENNKPGEVIAEITASDADSGSNAELVYSLEPEPAAKGLFTISPETGEIQVKTSLDREQRESYELKVVAADRGSPSLQGTATVLVNVLDCNDNDPKFMLSGYNFSVMENMPALSPVGMVTVIDGDKGENAQVQLSVEQDNGDFVIQNGTGTILSSLSFDREQQSTYTFQLKAVDGGVPPRSAYVGVTINVLDENDNAPYITAPSNTSHKLLTPQTRLGETVSQVAAEDFDSGVNAELIYSIAGGNPYGLFQIGSHSGAITLEKEIERRHHGLHRLVVKVSDRGKPPRYGTALVHLYVNETLANRTLLETLLGHSLDTPLDIDIAGDPEYERSKQRGN,Kd,AUC,1.2 µM
same,stoichiometry N,AUC,2
human pcdh9 full ectodomain (EC1–EC7) (domain or fragment) QELIYTIREELPENVPIGNIPKDLNISHINAATGTSASLVYRLVSKAGDAPLVKVSSSTGEIFTTSNRIDREKLCAGASYAEENECFFELEVVILPNDFFRLIKIKIIVKDTNDNAPMFPSPVINISIPENTLINSRFPIPSATDPDTGFNGVQHYELLNGQSVFGLDIVETPEGEKWPQLIVQQNLDREQKDTYVMKIKVEDGGTPQKSSTAILQVTVSDVNDNRPVFKEGQVEVHIPENAPVGTSVIQLHATDADIGSNAEIRYIFGAQVAPATKRLFALNNTTGLITVQRSLDREETAIHKVTVLASDGSSTPARATVTINVTDVNDNPPNIDLRYIISPINGTVYLSEKDPVNTKIALITVSDKDTDVNGKVICFIEREVPFHLKAVYDNQYLLETSSLLDYEGTKEFSFKIVASDSGKPSLNQTALVRVKLEDENDNPPIFNQPVIELSVSENNRRGLYLTTISATDEDSGKNADIVYQLGPNASFFDLDRKTGVLTASRVFDREEQERFIFTVTARDNGTPPLQSQAAVIVTVLDENDNSPKFTHNHFQFFVSENLPKYSTVGVITVTDADAGENKAVTLSILNDNDNFVLDPYSGVIKSNVSFDREQQSSYTFDVKATDGGQPPRSSTAKVTINVMDVNDNSPVVISPPSNTSFKLVPLSAIPGSVVAEVFAVDVDTGMNAELKYTIVSGNNKGLFRIDPVTGNITLEEKPAPTDVGLHRLVVNISDLGYPKSLHTLVLVFLYVNDTAGNASYIYDLIRRTMETPLDRNIGDSSQPYQNEDYLT,Kd,AUC,2.03 µM
same,stoichiometry N,AUC,2
